Laboratory results: publication PMC10204187, “The effects of nature‐inspired amino acid substitutions on structural and biochemical properties of the E. coli L‐asparaginase EcAIII” (Protein Science : A Publication of the Protein Society, 2023)

B1: EcAIII (Escherichia coli K-12) (protein)
chain 1: GKAVIAIHGGAGAISRAQMSLQQELRYIEALSAIVETGQKMLEAGESALDVVTEAVRLLEECPLFNAGIGAVFTRDETHELDACVMDGNTLKAGAVAGVSHLRNPVLAARLVMEQSPHVMMIGEGAENFAFARGMERVSPEIFSTSLRYEQLLAARKEGATVLDHSGAPLDEKQKMG
chain 2: TVGAVALDLDGNLAAATSTGGMTNKLPGRVGDSPLVGAGCYANNASVAVSCTGTGEVFIRALAAYDIAALMDYGGLSLAEACERVVMEKLPALGGSGGLIAIDHEGNVALPFNTEGMYRAWGYAGDTPTTGIYREKGDTVATQ
notes: untagged as described; EcAIII gene in pET11d, bacterial expression; precursor autoproteolytically matured to subunits alpha and beta from one gene, (alphabeta)2; purified by DEAE and SEC
B2: EcAIII (Escherichia coli K-12; M200W) (protein)
chain 1: GKAVIAIHGGAGAISRAQMSLQQELRYIEALSAIVETGQKMLEAGESALDVVTEAVRLLEECPLFNAGIGAVFTRDETHELDACVMDGNTLKAGAVAGVSHLRNPVLAARLVMEQSPHVMMIGEGAENFAFARGMERVSPEIFSTSLRYEQLLAARKEGATVLDHSGAPLDEKQKMG
chain 2: TVGAVALDLDGNLAAATSTGGWTNKLPGRVGDSPLVGAGCYANNASVAVSCTGTGEVFIRALAAYDIAALMDYGGLSLAEACERVVMEKLPALGGSGGLIAIDHEGNVALPFNTEGMYRAWGYAGDTPTTGIYREKGDTVATQ
notes: as for B1
B3: EcAIII (Escherichia coli K-12; M200I) (protein)
chain 1: GKAVIAIHGGAGAISRAQMSLQQELRYIEALSAIVETGQKMLEAGESALDVVTEAVRLLEECPLFNAGIGAVFTRDETHELDACVMDGNTLKAGAVAGVSHLRNPVLAARLVMEQSPHVMMIGEGAENFAFARGMERVSPEIFSTSLRYEQLLAARKEGATVLDHSGAPLDEKQKMG
chain 2: TVGAVALDLDGNLAAATSTGGITNKLPGRVGDSPLVGAGCYANNASVAVSCTGTGEVFIRALAAYDIAALMDYGGLSLAEACERVVMEKLPALGGSGGLIAIDHEGNVALPFNTEGMYRAWGYAGDTPTTGIYREKGDTVATQ
notes: as for B1
B4: EcAIII (Escherichia coli K-12; M200L) (protein)
chain 1: GKAVIAIHGGAGAISRAQMSLQQELRYIEALSAIVETGQKMLEAGESALDVVTEAVRLLEECPLFNAGIGAVFTRDETHELDACVMDGNTLKAGAVAGVSHLRNPVLAARLVMEQSPHVMMIGEGAENFAFARGMERVSPEIFSTSLRYEQLLAARKEGATVLDHSGAPLDEKQKMG
chain 2: TVGAVALDLDGNLAAATSTGGLTNKLPGRVGDSPLVGAGCYANNASVAVSCTGTGEVFIRALAAYDIAALMDYGGLSLAEACERVVMEKLPALGGSGGLIAIDHEGNVALPFNTEGMYRAWGYAGDTPTTGIYREKGDTVATQ
notes: as for B1
B5: EcAIII (Escherichia coli K-12; M200T) (protein)
chain 1: GKAVIAIHGGAGAISRAQMSLQQELRYIEALSAIVETGQKMLEAGESALDVVTEAVRLLEECPLFNAGIGAVFTRDETHELDACVMDGNTLKAGAVAGVSHLRNPVLAARLVMEQSPHVMMIGEGAENFAFARGMERVSPEIFSTSLRYEQLLAARKEGATVLDHSGAPLDEKQKMG
chain 2: TVGAVALDLDGNLAAATSTGGTTNKLPGRVGDSPLVGAGCYANNASVAVSCTGTGEVFIRALAAYDIAALMDYGGLSLAEACERVVMEKLPALGGSGGLIAIDHEGNVALPFNTEGMYRAWGYAGDTPTTGIYREKGDTVATQ
notes: as for B1
B6: EcAIII (Escherichia coli K-12; M200K) (protein)
chain 1: GKAVIAIHGGAGAISRAQMSLQQELRYIEALSAIVETGQKMLEAGESALDVVTEAVRLLEECPLFNAGIGAVFTRDETHELDACVMDGNTLKAGAVAGVSHLRNPVLAARLVMEQSPHVMMIGEGAENFAFARGMERVSPEIFSTSLRYEQLLAARKEGATVLDHSGAPLDEKQKMG
chain 2: TVGAVALDLDGNLAAATSTGGKTNKLPGRVGDSPLVGAGCYANNASVAVSCTGTGEVFIRALAAYDIAALMDYGGLSLAEACERVVMEKLPALGGSGGLIAIDHEGNVALPFNTEGMYRAWGYAGDTPTTGIYREKGDTVATQ
notes: as for B1

Each molecule was assayed against T1, EcAIII (Escherichia coli, UniProt P37595, M200L) (assay: X-ray crystal structure). Settings: covalent; beta-acyl-enzyme intermediate on Thr179, chain D.
T1 construct: gene iaaA; untagged as described; EcAIII gene in pET11d, bacterial expression; precursor autoproteolytically matured to subunits alpha and beta from one gene, (alphabeta)2; purified by DEAE and SEC
Type: binding

For `NC(=O)C[C@H](N)C(=O)O` [L-Asn], the X-ray crystal structure was “in the structure of variant M200L in chain D, we identified an acyl‐enzyme intermediate”.

Each molecule was assayed on NC(=O)C[C@H](N)C(=O)O (assay: purified protein). Settings: 20 mM Tris-HCl pH 8.0, 20 °C, L-Asn 0-84 mM.
Type: biochemical, Escherichia coli

First: B1
Second: B2
The Km of the first is 1.6-fold lower: 22 ± 3 mM for the first, 36 ± 10 mM for the second.

B3 and B4 are within error of each other in Km: 35 ± 4 mM for the first, 37 ± 5 mM for the second.

First: B5
Second: B6
The Km of the first is 1.6-fold higher: 64 ± 6 mM for the first, 40 ± 9 mM for the second.

Going from B1 to B2, the kcat falls from 501 ± 22.3 s⁻¹ to 290 ± 37.3 s⁻¹ (1.7-fold).

Going from B3 to B4, the kcat falls from 632 ± 37.9 s⁻¹ to 195 ± 12.7 s⁻¹ (3.2-fold).

Going from B5 to B6, the kcat falls from 217 ± 10.6 s⁻¹ to 127 ± 11.9 s⁻¹ (1.7-fold).

The molecules below were run against T2, EcAIII (Escherichia coli, UniProt P37595, M200T) (assay: X-ray crystal structure). Settings: M200T#m monoclinic, 1.84 Å; Gly added at 1:1 molar ratio; active site, two of four sites.
T2 construct: gene iaaA; untagged as described; EcAIII gene in pET11d, bacterial expression; precursor autoproteolytically matured to subunits alpha and beta from one gene, (alphabeta)2; purified by DEAE and SEC
Type: binding

For `NCC(=O)O` [Gly], the X-ray crystal structure was “In the structure M200T#m, glycine molecules were found in two out of four active sites”.
